Patent publication US20220089647A1 (FUJIFILM, published 2022)
Starred links: 1 amine or outer side, 2 acyl side, 3 side chain; linkers in the order of their positions; H or OH if unused. Positions of bridges follow the written chain, without caps; N, C: chain ends. Non-standard residues stand in square brackets, D forms with d. Primed or numbered codes have the meaning given here. No end group written: not given here. Dab(acetyl)″ = 2-amino-4-(acetylamino)butanoic acid, acetyl CH3 carbon bonded to the S of Hcy (S-CH2-C(=O)-NH-), O=C(C[*:3])NCC[C@H](N[*:1])C(=O)[*:2]; Dab(acetyl) = 2-amino-4-acetylamino-butanoic acid residue (N-γ-acetyl-diaminobutyric acid), CC(=O)NCC[C@H](N[*:1])C(=O)[*:2]; Orn(acetyl)″ = N-delta-acetyl-ornithine, acetyl CH3 carbon bonded to the S of Hcy, O=C(C[*:3])NCCC[C@H](N[*:1])C(=O)[*:2]; Lys(acetyl) = N-epsilon-acetyl-lysine, acetyl CH3 carbon bonded to the S of Hcy, O=C(C[*:3])NCCCC[C@H](N[*:1])C(=O)[*:2]; Dap(acetyl) = 2-amino-3-acetylamino-propanoic acid residue, CC(=O)NC[C@H](N[*:1])C(=O)[*:2]; Orn(acetyl) = N-δ-acetyl-ornithine residue, CC(=O)NCCC[C@H](N[*:1])C(=O)[*:2]; COCH2 = acetyl group that carries the bridge; hCys = N[C@@H](CCS)C(=O)O; Dab = NCC[C@H](N)C(=O)O

B1: Cyclic peptide 119 (peptide)
peptide: KKKGXIPRGDTFRXA
modifications: not fully specified; KKKG(Orn(acetyl))IPRGDTFR-(Hcy)-A; thioether bond Orn(acetyl)-Hcy
B2: Cyclic peptide 125 (peptide)
peptide: AXVPRGDTFAXA
modifications: not fully specified; A-(Hcy)-VPRGDTFA(Dab(acetyl))A; thioether bond Hcy-Dab(acetyl)
notes: no lysine
B3: Cyclic peptide 126 (peptide)
peptide: AXIPRGDSFAXA
modifications: not fully specified; A-(Hcy)-IPRGDSFA(Dab(acetyl))A; thioether bond Hcy-Dab(acetyl)
notes: no lysine
B4: Cyclic peptide 127 (peptide)
peptide: AXIPRGDSFAXG
modifications: not fully specified; A-(Hcy)-IPRGDSFA(Dab(acetyl))G; thioether bond Hcy-Dab(acetyl)
notes: no lysine
B5: Cyclic peptide 128 (peptide)
peptide: KKKGXIPRGDTFRXA
modifications: not fully specified; KKKG-(Pen)-IPRGDTFR(Dap(acetyl))A; thioether bond Pen-Dap(acetyl)
B6: Cyclic peptide 13 (peptide)
peptide: KKKXIPRGDNFX
modifications: not fully specified; KKK-(Hcy)-IPRGDNF(Dab(acetyl)); thioether bond Hcy-Dab(acetyl)
B7: Cyclic peptide 130 (peptide)
peptide: KKKGXIPRGDTFRXA
modifications: not fully specified; KKKG-(Pen)-IPRGDTFR(Orn(acetyl))A; thioether bond Pen-Orn(acetyl)
B8: Cyclic peptide 132 (peptide)
peptide: KKKGXIPRGDTFRXA
modifications: not fully specified; KKKG(Dap(acetyl))IPRGDTFR-(Pen)-A; thioether bond Dap(acetyl)-Pen
B9: Cyclic peptide 134 (peptide)
peptide: KKKGXIPRGDTFRXA
modifications: not fully specified; KKKG(Orn(acetyl))IPRGDTFR-(Pen)-A; thioether bond Orn(acetyl)-Pen
B10: Cyclic peptide 7 (peptide)
peptide: KKKGXIPRGDNFRX
modifications: not fully specified; KKKG-(Hcy)-IPRGDNFR(Dab(acetyl)); thioether bond Hcy-Dab(acetyl)
B11: Cyclic peptide 68 (peptide)
peptide: KKKGXXPRGDTFRXA
modifications: not fully specified; KKKG-(Hcy)-(HmY)-PRGDTFR(Dab(acetyl))A; HmY = homotyrosine; thioether bond Hcy-Dab(acetyl)
B12: Cyclic peptide 72 (peptide)
peptide: KKKGXIPRGDSFRXA
modifications: not fully specified; KKKG-(Hcy)-IPRGDSFR(Dab(acetyl))A; thioether bond Hcy-Dab(acetyl)
B13: Cyclic peptide 76 (peptide)
peptide: KKKAXITRGDTFRXA
modifications: not fully specified; KKKA-(Hcy)-ITRGDTFR(Dab(acetyl))A; thioether bond Hcy-Dab(acetyl)
B14: Cyclic peptide 79 (peptide)
peptide: KKKAXIPRGDAFRXA
modifications: not fully specified; KKKA-(Hcy)-IPRGDAFR(Dab(acetyl))A; thioether bond Hcy-Dab(acetyl)
B15: Cyclic peptide 80 (peptide)
peptide: KKKAXIPRGDTPRXA
modifications: not fully specified; KKKA-(Hcy)-IPRGDTPR(Dab(acetyl))A; thioether bond Hcy-Dab(acetyl)
B16: Cyclic peptide 81 (peptide)
peptide: KKKAXIPRGDTYRXA
modifications: not fully specified; KKKA-(Hcy)-IPRGDTYR(Dab(acetyl))A; thioether bond Hcy-Dab(acetyl)
B17: Cyclic peptide 82 (peptide)
peptide: KKKAXIPRGDTFTXA
modifications: not fully specified; KKKA-(Hcy)-IPRGDTFT(Dab(acetyl))A; thioether bond Hcy-Dab(acetyl)
B18: Cyclic peptide 124 (peptide)
peptide: KKKAXIPRGDSFAXA
modifications: not fully specified; KKKA(Dab(acetyl))IPRGDSFA-(Hcy)-A; thioether bond Dab(acetyl)-Hcy
B19: Cyclic peptide 137 (peptide)
peptide: KKKAXIPRGDSFAXA
modifications: not fully specified; KKKA(Dab(acetyl))IPRGDSFA-(Pen)-A; thioether bond Dab(acetyl)-Pen
B20: Cyclic peptide 12 (peptide)
peptide: KKKXIPRGDNFRX
modifications: not fully specified; KKK(Dap(acetyl))IPRGDNFR-(Hcy); thioether bond Dap(acetyl)-Hcy

target: T1, human integrin αvβ5 (human, UniProt P06756 31-992; P18084 24-719, limits assumed); assay: SPR, Biacore 3000, peptide immobilised; A = KD 50 nM or less
T1 construct: Heterodimer flowed as analyte at 30, 100, 300 and 1,000 nM in HEPES buffer with 5 mM MgCl2
Experimental: (§1) However, only for the cyclic peptides 125, 126, and 127, in which the number of lysine residues having an amino group as the immobilizing functional group was zero, the amount of the sample solution to be supplied to the sensor chip was set to 500 μL instead of 20 μL. Further, 70 μL of the mixed aqueous solution of 0.2 M EDC and 0.04 M NHS was added to another flow channel of the same sensor chip without immobilizing the sample, and then blocking treatment and washing treatment were carried out. Hereinafter, the obtained immobilization-treated sensor chip is referred to as an “immobilization-treated sensor chip A”.
(§2) After adding human integrin αvβ5 for 10 minutes at 25° C., which was diluted to 30 nM using a HEPES buffer solution to which magnesium chloride was added to 5 mM, in each flow channel of the immobilization-treated sensor chip A prepared in (1) above, the same HEPES buffer solution (containing 5 mM magnesium chloride) was allowed to flow as a running buffer for 30 minutes, and measurement was carried out with Biacore 3000. Then, a regeneration treatment of removing human integrin αvβ5 was carried out by allowing a 0.5 M EDTA aqueous solution to flow through each flow channel for 10 minutes. Further, the above-described measurement process consisting of adding integrin for 10 minutes, allowing a running buffer to flow for 30 minutes, carrying out measurement with Biacore 3000, and carrying out regeneration treatment with 0.5 M EDTA aqueous solution was carried out in the same manner for 100 nM human integrin αvβ5, 300 nM human integrin αvβ5, and 1,000 nM human integrin αvβ5. Dissociation constant between the cyclic peptide and human integrin αvβ5 was calculated from the difference between the value measured by Biacore 3000 in the flow channel immobilized with the cyclic peptide and the value measured by Biacore 3000 in the flow channel unimmobilized with the cyclic peptide, in a case where each concentration of human integrin αvβ5 was allowed to flow, and the integrin binding property was evaluated according to the following evaluation standards. It is preferable that the evaluation result satisfies the evaluation standard A, B, or C.

T1 sequence (P06756 31-992 limits assumed, chain 1 of 2): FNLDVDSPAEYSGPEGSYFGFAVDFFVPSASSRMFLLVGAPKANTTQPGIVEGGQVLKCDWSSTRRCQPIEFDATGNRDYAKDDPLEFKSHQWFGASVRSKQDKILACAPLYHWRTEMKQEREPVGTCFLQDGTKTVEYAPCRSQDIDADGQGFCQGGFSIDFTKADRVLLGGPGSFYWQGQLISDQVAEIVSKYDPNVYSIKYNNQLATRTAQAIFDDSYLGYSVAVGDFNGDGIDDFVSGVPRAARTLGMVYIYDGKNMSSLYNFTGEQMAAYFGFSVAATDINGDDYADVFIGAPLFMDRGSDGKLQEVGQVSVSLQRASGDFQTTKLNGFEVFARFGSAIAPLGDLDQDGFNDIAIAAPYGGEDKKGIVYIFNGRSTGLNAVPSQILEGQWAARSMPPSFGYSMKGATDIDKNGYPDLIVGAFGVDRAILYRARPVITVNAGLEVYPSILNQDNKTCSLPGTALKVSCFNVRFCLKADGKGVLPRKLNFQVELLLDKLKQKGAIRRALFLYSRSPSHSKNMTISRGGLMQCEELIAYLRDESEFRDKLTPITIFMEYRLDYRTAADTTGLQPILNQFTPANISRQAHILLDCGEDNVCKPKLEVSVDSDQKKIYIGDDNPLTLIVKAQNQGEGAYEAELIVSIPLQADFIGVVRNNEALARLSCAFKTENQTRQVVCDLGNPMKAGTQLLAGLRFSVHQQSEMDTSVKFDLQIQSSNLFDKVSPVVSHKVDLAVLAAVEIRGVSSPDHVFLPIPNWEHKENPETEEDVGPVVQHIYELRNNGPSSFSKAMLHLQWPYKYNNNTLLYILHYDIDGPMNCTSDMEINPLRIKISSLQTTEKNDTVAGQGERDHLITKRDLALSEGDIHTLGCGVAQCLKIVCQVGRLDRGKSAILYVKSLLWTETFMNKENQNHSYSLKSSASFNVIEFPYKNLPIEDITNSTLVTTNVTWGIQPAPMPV
T1 sequence (P18084 24-719 limits assumed, chain 2 of 2): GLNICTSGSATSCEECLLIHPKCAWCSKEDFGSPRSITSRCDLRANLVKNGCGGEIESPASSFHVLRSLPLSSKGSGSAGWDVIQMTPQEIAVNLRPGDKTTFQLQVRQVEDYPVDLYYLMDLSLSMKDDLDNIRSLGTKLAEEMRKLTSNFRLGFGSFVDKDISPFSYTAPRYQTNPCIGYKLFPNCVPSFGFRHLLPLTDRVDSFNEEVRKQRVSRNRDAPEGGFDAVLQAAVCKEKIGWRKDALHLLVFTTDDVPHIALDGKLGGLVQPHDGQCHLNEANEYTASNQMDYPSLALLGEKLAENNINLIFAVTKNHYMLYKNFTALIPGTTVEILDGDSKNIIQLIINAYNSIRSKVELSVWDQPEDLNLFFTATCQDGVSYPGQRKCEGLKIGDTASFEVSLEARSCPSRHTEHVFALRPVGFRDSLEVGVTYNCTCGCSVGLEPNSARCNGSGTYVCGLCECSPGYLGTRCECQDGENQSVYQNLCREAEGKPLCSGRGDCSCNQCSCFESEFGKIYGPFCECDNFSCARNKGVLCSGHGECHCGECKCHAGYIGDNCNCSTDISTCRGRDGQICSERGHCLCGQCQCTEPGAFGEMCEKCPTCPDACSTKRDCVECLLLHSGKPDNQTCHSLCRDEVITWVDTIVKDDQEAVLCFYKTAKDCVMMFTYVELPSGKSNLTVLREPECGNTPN

Row | Binder | dissociation constant [nM] | dissociation constant (KD) [nM]
1 | KKKG[hCys]IPRGDTFR[Dap(acetyl)]A (thioether 5-14) [Cyclic peptide 114] | ≤ 50 | –
2 | KKKG[hCys]IPRGDTFR[Orn(acetyl)″]A (thioether 5-14) [Cyclic peptide 115] | ≤ 50 | –
3 | KKKG[hCys]IPRGDTFR[Lys(acetyl)]A (thioether 5-14) [Cyclic peptide 116] | ≤ 50 | –
4 | KKKG[Dap(acetyl)]IPRGDTFR[hCys]A (thioether 5-14) [Cyclic peptide 117] | ≤ 50 | –
5 | KKKG[Dab(acetyl)″]IPRGDTFR[hCys]A (thioether 5-14) [Cyclic peptide 118] | ≤ 50 | –
6 | B1 | ≤ 50 | –
7 | B2 | ≤ 50 | –
8 | B3 | ≤ 50 | –
9 | B4 | ≤ 50 | –
10 | B5 | ≤ 50 | –
11 | B6 | – | ≤ 50
12 | KKK[hCys]VPRGDNF[Dab(acetyl)] (thioether 4-12) [Cyclic peptide 14] | – | ≤ 50
13 | KKK[hCys]IPRGDTF[Dab(acetyl)″] (thioether 4-12) [Cyclic peptide 63] | ≤ 50 | –
14 | KKK[hCys]VPRGDTF[Dab(acetyl)″] (thioether 4-12) [Cyclic peptide 64] | ≤ 50 | –
15 | KKK[hCys]VPRGDVF[Dab(acetyl)″] (thioether 4-12) [Cyclic peptide 66] | ≤ 50 | –
16 | B7 | ≤ 50 | –
17 | B8 | ≤ 50 | –
18 | B9 | ≤ 50 | –
19 | KKKG[Orn(acetyl)]IPRGDTFRCA (thioether 5-14) [Cyclic peptide 139] | ≤ 50 | –

Row | Binder | dissociation constant [nM] | dissociation constant (KD) [nM]
20 | KKK[hCys]IPRGDNFR[Dab](COCH2)A (thioether 4-13) [Cyclic peptide 3] | – | ≤ 50
21 | KKK[hCys]IPRGDNFR[Dab](COCH2)G (thioether 4-13) [Cyclic peptide 4] | – | ≤ 50
22 | KKK[hCys]IPRGDNFR[Dab(acetyl)″]D (thioether 4-13) [Cyclic peptide 5] | – | ≤ 50
23 | KKK[hCys]VPRGDNFR[Dab](COCH2)A (thioether 4-13) [Cyclic peptide 21] | – | ≤ 50
24 | KKK[hCys]EPRGDNFR[Dab](COCH2)A (thioether 4-13) [Cyclic peptide 23] | – | ≤ 50
25 | KKK[hCys]YPRGDNFR[Dab](COCH2)A (thioether 4-13) [Cyclic peptide 24] | – | ≤ 50
26 | KKK[hCys]IPRGDTFR[Dab(acetyl)″]A (thioether 4-13) [Cyclic peptide 57] | – | ≤ 50
27 | KKK[hCys]IPRGDNFRAA[Dab](COCH2)A (thioether 4-15) [Cyclic peptide 19] | – | ≤ 50
28 | KKKG[hCys]AIPRGDTFRA[Dab(acetyl)″]A (thioether 5-16) [Cyclic peptide 67] | ≤ 50 | –
29 | KKKA[hCys]IPRGDNYR[Dab](COCH2)D (thioether 5-14) [Cyclic peptide 30] | – | ≤ 50
30 | KKKA[hCys]LPRGDNYR[Dab](COCH2)D (thioether 5-14) [Cyclic peptide 31] | – | ≤ 50
31 | KKKA[hCys]YPRGDNYR[Dab](COCH2)D (thioether 5-14) [Cyclic peptide 32] | – | ≤ 50
32 | KKKA[hCys]EPRGDNFR[Dab](COCH2)D (thioether 5-14) [Cyclic peptide 34] | – | ≤ 50
33 | KKKE[hCys]EPRGDNYR[Dab](COCH2)D (thioether 5-14) [Cyclic peptide 39] | – | ≤ 50
34 | KKKA[Dap(acetyl)]EPRGDNYR[hCys]D (thioether 5-14) [Cyclic peptide 48] | – | ≤ 50
35 | KKKG[hCys]IPRGDTF[Dab(acetyl)″]A (thioether 5-13) [Cyclic peptide 58] | – | ≤ 50
36 | B10 | – | ≤ 50
37 | KKKG[hCys]IPRGDTFR[Dab(acetyl)″] (thioether 5-14) [Cyclic peptide 59] | – | ≤ 50
38 | B11 | ≤ 50 | –

target: T1, human integrin αvβ5; assay: SPR, Biacore 3000, peptide immobilised; B = KD more than 50 nM and 100 nM or less
Experimental: as §1, §2

Row | Binder | dissociation constant (KD) [nM] | dissociation constant [nM]
39 | KKKG[hCys]LPRGDSFR[Dab](COCH2)A (thioether 5-14) [Cyclic peptide 28] | 50 to 100 | –
40 | B12 | – | 50 to 100
41 | B13 | – | 50 to 100
42 | B14 | – | 50 to 100
43 | B15 | – | 50 to 100
44 | B16 | – | 50 to 100
45 | B17 | – | 50 to 100
46 | B18 | – | 50 to 100
47 | B19 | – | 50 to 100
48 | KKK[hCys]IPRGDNF[Dab(acetyl)″]A (thioether 4-12) [Cyclic peptide 10] | 50 to 100 | –
49 | B20 | 50 to 100 | –
50 | KKKA[hCys]VTRGDVFT[Dab(acetyl)″]A (thioether 5-14) [Cyclic peptide 113] | – | 50 to 100
